Assays:
Test in all cases: immunoblotting after reducing SDS-PAGE
[1] = biological target: T1, recombinant human ADAMTS15 (R&D Systems) (human, UniProt Q8TE58 213-950, limits assumed)
T1 sequence (looked up): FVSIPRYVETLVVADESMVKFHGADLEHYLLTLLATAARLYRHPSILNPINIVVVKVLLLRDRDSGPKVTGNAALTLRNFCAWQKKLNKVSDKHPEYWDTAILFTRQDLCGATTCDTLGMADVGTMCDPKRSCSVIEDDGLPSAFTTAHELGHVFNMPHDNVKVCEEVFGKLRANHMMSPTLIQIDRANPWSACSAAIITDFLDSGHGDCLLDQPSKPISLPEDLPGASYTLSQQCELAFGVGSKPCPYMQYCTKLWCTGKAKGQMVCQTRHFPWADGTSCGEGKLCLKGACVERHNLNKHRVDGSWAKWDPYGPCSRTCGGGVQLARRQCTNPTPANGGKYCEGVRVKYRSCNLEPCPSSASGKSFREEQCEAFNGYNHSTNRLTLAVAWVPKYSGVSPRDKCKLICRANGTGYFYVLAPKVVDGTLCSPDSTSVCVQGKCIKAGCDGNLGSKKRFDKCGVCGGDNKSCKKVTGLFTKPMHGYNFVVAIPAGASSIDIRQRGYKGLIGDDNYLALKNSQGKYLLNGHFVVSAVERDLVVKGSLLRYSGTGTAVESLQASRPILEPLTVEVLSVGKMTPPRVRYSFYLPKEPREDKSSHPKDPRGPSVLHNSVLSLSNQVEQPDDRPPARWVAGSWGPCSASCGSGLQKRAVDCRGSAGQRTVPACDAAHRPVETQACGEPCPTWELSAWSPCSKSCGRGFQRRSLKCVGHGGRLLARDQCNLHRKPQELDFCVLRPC
Source text: (§1) Recombinant proteins of human ADAMTS1 (R&D Systems), ADAMTS4, ADAMTS5 (R&D Systems), ADAMTS15 (R&D Systems), ADAM10 (R&D Systems), ADAM12 (Mochida Pharmaceutical Co., Ltd., Tokyo, Japan), ADAM17 (R&D Systems) and MMP-13 (Millipore, Billerica, Mass.) and purified human MMP-1, MMP-2, MMP-3 and MMP-9 (Daiichi Fine Chemical, Co., Ltd., Toyama, Japan) were subjected to sodium dodecyl sulfate-polyacrylamide gel electrophoresis (SDS-PAGE) under reducing conditions, and the samples resolved on the gels were transferred onto polyvinylidene difluoride (PVDF) membranes. […] After washing with phosphate buffered saline containing 0.1% Tween 20, the membranes were reacted with horseradish peroxidase-conjugated secondary antibody against human IgG (Invitrogen, Carlsbad, Calif.) for 1 h at room temperature. A chemiluminescence reagent (Pierce ECL western blotting substrate; Thermo Fisher Scientific, Waltham, Mass.) was used to make the labeled protein bands visible. All the samples were also examined on silver-stained gels, which were prepared by silver stain kit (Cosmo Bio Co., Ltd, […].).

[2] = biological target: T2, purified human MMP-1 (Daiichi Fine Chemical) (human, UniProt P03956 20-469, limits assumed)
T2 sequence (looked up): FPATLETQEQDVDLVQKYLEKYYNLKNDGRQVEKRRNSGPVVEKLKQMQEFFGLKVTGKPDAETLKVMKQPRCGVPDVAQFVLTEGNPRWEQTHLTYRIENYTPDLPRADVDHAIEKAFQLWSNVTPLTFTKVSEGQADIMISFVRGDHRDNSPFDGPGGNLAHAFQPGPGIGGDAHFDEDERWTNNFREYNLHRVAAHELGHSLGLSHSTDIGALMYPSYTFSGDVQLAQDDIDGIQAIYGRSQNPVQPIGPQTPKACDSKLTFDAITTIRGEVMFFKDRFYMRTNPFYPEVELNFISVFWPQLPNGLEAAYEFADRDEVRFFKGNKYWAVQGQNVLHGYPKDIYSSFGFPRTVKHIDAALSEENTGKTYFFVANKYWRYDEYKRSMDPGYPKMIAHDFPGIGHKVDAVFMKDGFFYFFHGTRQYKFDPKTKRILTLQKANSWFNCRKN
Source text: as §1

[3] = biological target: recombinant human MMP-13 (Millipore) (human, UniProt P45452 20-471, limits assumed)
Source text: as §1

[4] = biological target: purified human MMP-9 (Daiichi Fine Chemical) (human, UniProt P14780 20-707, limits assumed)
Source text: as §1

[5] = biological target: T3, recombinant human ADAMTS1 (R&D Systems) (human, UniProt Q9UHI8 253-967, limits assumed)
T3 sequence (looked up): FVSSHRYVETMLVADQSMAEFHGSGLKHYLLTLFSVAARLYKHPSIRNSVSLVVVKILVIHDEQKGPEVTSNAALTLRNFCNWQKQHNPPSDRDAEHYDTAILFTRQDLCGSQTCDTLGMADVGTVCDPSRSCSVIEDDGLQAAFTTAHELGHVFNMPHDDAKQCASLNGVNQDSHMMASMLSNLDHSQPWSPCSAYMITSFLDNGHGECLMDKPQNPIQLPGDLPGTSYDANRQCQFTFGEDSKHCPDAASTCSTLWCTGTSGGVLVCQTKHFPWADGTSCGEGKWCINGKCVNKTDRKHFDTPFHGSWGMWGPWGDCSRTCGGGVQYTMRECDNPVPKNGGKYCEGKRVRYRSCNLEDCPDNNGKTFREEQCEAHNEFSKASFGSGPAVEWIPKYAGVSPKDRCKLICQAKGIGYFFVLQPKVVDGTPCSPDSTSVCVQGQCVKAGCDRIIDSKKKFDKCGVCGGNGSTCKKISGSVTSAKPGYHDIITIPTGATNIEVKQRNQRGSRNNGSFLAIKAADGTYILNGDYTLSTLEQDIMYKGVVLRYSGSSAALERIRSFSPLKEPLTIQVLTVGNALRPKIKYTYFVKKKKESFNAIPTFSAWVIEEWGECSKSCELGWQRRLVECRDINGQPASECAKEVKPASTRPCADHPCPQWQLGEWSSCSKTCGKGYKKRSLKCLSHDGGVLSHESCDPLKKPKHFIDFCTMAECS
Source text: as §1

Measured: binding result

Chain of purified human MMP-9 (Daiichi Fine Chemical) (P14780 20-707 limits assumed): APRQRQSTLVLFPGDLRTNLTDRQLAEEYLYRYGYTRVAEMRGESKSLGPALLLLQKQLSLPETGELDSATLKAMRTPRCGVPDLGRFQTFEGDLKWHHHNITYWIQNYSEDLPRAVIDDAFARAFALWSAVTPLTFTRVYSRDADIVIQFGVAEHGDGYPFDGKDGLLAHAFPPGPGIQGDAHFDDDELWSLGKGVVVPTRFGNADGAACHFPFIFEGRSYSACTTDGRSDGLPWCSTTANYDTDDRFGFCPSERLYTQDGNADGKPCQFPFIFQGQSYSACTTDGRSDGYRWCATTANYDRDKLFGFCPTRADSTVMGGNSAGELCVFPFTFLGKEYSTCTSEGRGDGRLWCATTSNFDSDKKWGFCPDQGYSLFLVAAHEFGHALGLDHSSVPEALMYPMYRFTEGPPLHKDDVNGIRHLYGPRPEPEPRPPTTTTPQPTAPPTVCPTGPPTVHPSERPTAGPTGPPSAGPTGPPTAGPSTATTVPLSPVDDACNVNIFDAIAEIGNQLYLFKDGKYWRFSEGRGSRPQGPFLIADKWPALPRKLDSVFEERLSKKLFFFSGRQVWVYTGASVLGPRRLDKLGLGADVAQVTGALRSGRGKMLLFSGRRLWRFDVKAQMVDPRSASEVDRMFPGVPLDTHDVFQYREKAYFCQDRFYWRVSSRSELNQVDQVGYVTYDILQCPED

B1: Fab of clone 237-53 (Fab, V domains shown)
VH: QVQLVQSGAEVKKPGSSVKVSCKASGGTFSSFAISWVRQAPGQGLEWMGGIFPIFGQANYAQKFQGRVTITADESTSTAYMELSSLRSEDTAVYYCARFSDWWEWQMDYWGQGTLVTVSS
VL: DIVMTQSPDSLAVSLGERATINCRSSQSILYSSNNNYLAWYQQKPGQPPKLLIHTASARESGVPDRFSGSGSGTDFTLTISSLQAEDVAVYYCQQYYSVSITFGQGTKVEIKR
no binding (tested: 5 µg/ml): [1] | [2] | [3] | [4] | [5]

— patent US20160304622A1 (GENEFRONTIER, published 2016)
